Laboratory results published in patent US20140017235A1.

Biological target: human NGF (human) (UniProt P01138)
Assay: cell-based or functional assay

human NGF (human), sequence (P01138 122-241 limits assumed): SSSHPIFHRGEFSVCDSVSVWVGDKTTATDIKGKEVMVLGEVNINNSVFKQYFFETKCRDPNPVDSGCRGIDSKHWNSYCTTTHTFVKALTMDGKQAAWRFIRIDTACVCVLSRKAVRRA

mouse antibody 911 (Fab)
antibody concentration that totally blocked NGF-elicited survival of trigeminal neurons: 20 nM
